Test results: patent US20250188188A1 (DIANTHUS THERAPEUTICS OPCO, published 2025)
Changes are numbered by the printed parent chain. Names may count otherwise.

T1: active human C1s purified from human serum (CompTech, Tyler, TX, catalog number A104) (human, UniProt P09871 16-437; P09871 438-688)
T1 sequence 1: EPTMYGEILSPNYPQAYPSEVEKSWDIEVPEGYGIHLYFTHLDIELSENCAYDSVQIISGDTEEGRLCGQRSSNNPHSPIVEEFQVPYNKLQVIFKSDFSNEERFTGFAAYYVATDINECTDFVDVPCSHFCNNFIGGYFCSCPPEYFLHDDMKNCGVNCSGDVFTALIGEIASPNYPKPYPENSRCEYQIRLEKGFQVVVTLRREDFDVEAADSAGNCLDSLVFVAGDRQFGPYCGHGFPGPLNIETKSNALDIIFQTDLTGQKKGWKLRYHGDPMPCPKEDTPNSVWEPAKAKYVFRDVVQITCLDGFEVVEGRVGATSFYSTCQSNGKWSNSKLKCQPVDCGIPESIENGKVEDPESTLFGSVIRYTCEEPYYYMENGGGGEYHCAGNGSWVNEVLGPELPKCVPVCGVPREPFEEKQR
T1 sequence 2: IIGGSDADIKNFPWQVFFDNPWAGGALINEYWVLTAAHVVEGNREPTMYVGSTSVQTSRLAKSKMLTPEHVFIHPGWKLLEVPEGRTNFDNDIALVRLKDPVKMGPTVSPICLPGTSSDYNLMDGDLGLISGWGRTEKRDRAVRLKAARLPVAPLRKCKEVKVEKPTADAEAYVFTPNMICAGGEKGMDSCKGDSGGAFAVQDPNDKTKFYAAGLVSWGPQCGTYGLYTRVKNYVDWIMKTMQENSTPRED

B1: MAB2 (US20220380483A1) (antibody, V domains shown)
VH: QVQLVESGGGLVKPGGSLRLSCAASGFTFSDYYMSWIRQAPGKGLEWVSYISRSGSTKYYADSVKGRFTISRDNAKNSLYLQMNSLRAEDTAVYYCARDETDYALDYWGQGTLVTVSS
VL: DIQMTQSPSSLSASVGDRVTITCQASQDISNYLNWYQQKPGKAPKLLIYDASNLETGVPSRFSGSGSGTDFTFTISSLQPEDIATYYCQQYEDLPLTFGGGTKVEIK
B2: IgG4-MAB4 (MAB4 in human IgG4 with S228P, L235E and YTE) (antibody, V domains shown)
VH: B1 VH with T101S, D102Q
VL: DIQMTQSPSSLSASVGDRVTITCQASQDISNYLNWYQQKPGKAPKLLIYDASNLETGVPSRFSGSGSGTDFTFTISSLQPEDIATYYCHQYEDYPLTFGGGTKVEIKR
B3: MAB3 (antibody, V domains shown)
VH: B1 VH with L105F, Y107E
VL: DIQMTQSPSSLSASVGDRVTITCQASQDISNYLNWYQQKPGKAPKLLIYDASNLETGVPSRFSGSGSGTDFTFTISSLQPEDIATYYCKQYEDYPLTFGGGTKVEIK
notes: IgG
B4: MAB7 (antibody, V domains shown)
VH: B1 VH with L105Y, Y107N
VL: B3 VL with K89Q, T97V
notes: IgG
B5: MAB1 (antibody, V domains shown)
VH: B1 VH with E100Q, T101E
VL: B3 VL with K89E
notes: 191g-derived clone expressed as IgG in 293 cells
B6: MAB4 (antibody, V domains shown)
VH: B1 VH with T101S, D102Q
VL: B3 VL with K89H
notes: The IgG4 YTE form is entered separately as IgG4-MAB4
B7: MAB2 (antibody, V domains shown)
VH: B1 VH with A104G, L105W
VL: B3 VL
notes: IgG
B8: MAB9 (antibody, V domains shown)
VH: QVQLVESGGGLVKPGGSLRLSCAASGFTFSDYYMSWIRQAPGKGLEWVSYISRSGSTKYYADSVKGRFTISRDNAKNSLYLQMNSLRAEDTAVYYCARDENYALDWWGQGTLVTVSS
VL: B3 VL with K89Q, Q90H
notes: The IgG4 YTE form is entered separately as IgG4-MAB9
B9: MAB15 (antibody, V domains shown)
VH: QVQLVQSGAEVKKPGASVKVSCKVSGDTLTELSMHWVRQAPGKGLEWMGTFDPEEGETIYAQKFQGRVTMTEDTSTDTAYMELSSLRSEDTAVYYCVTKGLAWLPYYSWGQGTLVTVSS
VL: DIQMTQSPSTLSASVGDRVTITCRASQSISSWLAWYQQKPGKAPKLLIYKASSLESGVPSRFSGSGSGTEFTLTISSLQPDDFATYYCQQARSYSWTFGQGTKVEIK
notes: IgG
B10: MAB22 (antibody, V domains shown)
VH: EVQLVESGGGVVRPGGSLRLSCAASGFTFDDYGMSWVRQAPGKGLEWVSGINWEGGSTGYADSVKGRFTISRDNAKNSLYLQMNSLRAEDTALYYCARDEQLGGKYYYYYYMDVWGKGTTVTVSS
VL: DIQMTQSPSSLSASVGDRVTITCRASQGIRNDLGWYQQKPGKAPKRLIYTASNLQSGVPSRFSGSGSGTEFTLTISSLQPEDFATYYCLQYRSHPLTFGGGTKVEIK
notes: IgG
B11: MAB26 (antibody, V domains shown)
VH: B10 VH with T69S, K105L, Y106K
VL: B10 VL with Y91T, R92N, S93I, H94Y
notes: IgG
B12: MAB30 (antibody, V domains shown)
VH: B10 VH with K105R, Y106H
VL: B10 VL with R92N, S93A, H94Y, T97I
notes: IgG
B13: MAB28 (antibody, V domains shown)
VH: B10 VH with T69S, K105L, Y106K
VL: B10 VL with R92H, H94Y, T97R
notes: IgG
B14: MAB24 (antibody, V domains shown)
VH: B10 VH with K105T, Y106T
VL: B10 VL with Y91T, R92N, S93I, H94Y
notes: IgG
B15: MAB25 (antibody, V domains shown)
VH: B10 VH with K105I, Y106K
VL: B10 VL with R92K, S93Q, H94Y
notes: IgG
B16: IgG4-MAB39 (MAB39 in human IgG4 with S228P, L235E and YTE) (antibody)
heavy: EVQLVESGGGLVKPGGSLRLSCAASGFTFSDYYMSWIRQAPGKGLEWVSYISRSGSTKYYADSVKGRFTISRDNAKNSLYLQMNSLRAEDTAVYYCARDENYALDWWGQGTLVTVSSASTKGPSVFPLAPCSRSTSESTAALGCLVKDYFPEPVTVSWNSGALTSGVHTFPAVLQSSGLYSLSSVVTVPSSSLGTKTYTCNVDHKPSNTKVDKRVESKYGPPCPPCPAPEFEGGPSVFLFPPKPKDTLYITREPEVTCVVVDVSQEDPEVQFNWYVDGVEVHNAKTKPREEQFNSTYRVVSVLTVLHQDWLNGKEYKCKVSNKGLPSSIEKTISKAKGQPREPQVYTLPPSQEEMTKNQVSLTCLVKGFYPSDIAVEWESNGQPENNYKTTPPVLDSDGSFFLYSRLTVDKSRWQEGNVFSCSVMHEALHNHYTQKSLSLSLG
light: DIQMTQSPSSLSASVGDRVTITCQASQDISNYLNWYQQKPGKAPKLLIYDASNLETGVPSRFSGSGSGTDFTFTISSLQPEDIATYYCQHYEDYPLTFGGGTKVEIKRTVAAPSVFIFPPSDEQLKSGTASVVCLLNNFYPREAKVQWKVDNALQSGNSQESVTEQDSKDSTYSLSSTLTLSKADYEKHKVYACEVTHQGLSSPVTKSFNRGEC
notes: Differs from MAB9 only in the N-terminal VH residue (E instead of Q); also called IgG-MAB39

What follows are binders tested against T1, active human C1s purified from human … (assay: cell-based or functional assay).

Row | IC50 in the RBC lysis assay (FIG. 4C) [nM] | Binder
1 | 61.2 | B1

Biological target: T1, active human C1s purified from human …
Test: cell-based or functional assay
Remark: another data set of the same source

Row | IC50, inhibition of Wieslab complement classical pathway (C5b-9 ELISA), 1% human serum [nM] | Binder
2 | 2.6 | B2

Biological target: T1, active human C1s purified from human …
Test: cell-based or functional assay
Remark: another data set of the same source

Row | Binder | IC50, inhibition of sensitized hRBC lysis in 25% human serum, Donor 1 [nM] | IC50, inhibition of sensitized hRBC lysis in 25% human serum, Donor 2 [nM] | IC50, inhibition of sensitized hRBC lysis in 25% human serum, Donor 3 [nM]
3 | B2 | 14.9 | 17.1 | 6.6

Biological target: T1, active human C1s purified from human …
Test: cell-based or functional assay
Remark: another data set of the same source

Row | Binder | IC50, inhibition of sensitized hRBC lysis in 25% human serum [nM]
4 | B2 | 17.5

Biological target: T1, active human C1s purified from human …
Test: cell-based or functional assay
Remark: another data set of the same source

Row | Binder | IC50, inhibition of C3b deposition on sensitized hRBCs in 7.5% human serum (flow cytometry), Donor A [nM] | IC50, inhibition of C3b deposition on sensitized hRBCs in 7.5% human serum (flow cytometry), Donor B (1) [nM] | IC50, inhibition of C3b deposition on sensitized hRBCs in 7.5% human serum (flow cytometry), Donor B (2) [nM]
5 | B2 | 69.2 | 193 | 262

The binders below were run against T1, active human C1s purified from human … (assay: SPR, antibody captured via anti-human Fc, C1s in solution).

Row | Kd [nM] | koff [s⁻¹] | kon [M⁻¹ s⁻¹] | Binder
6 | 0.932 | 0.000209 | 224000 | B3
7 | 1.22 | 0.000223 | 184000 | B4
8 | 0.95 | 0.000255 | 268000 | B5
9 | 1.22 | 0.000232 | 190000 | B6
10 | 1.83 | 0.000215 | 118000 | B7
11 | 0.306 | 0.000127 | 414000 | B8
12 | 6.39 | 0.000737 | 115000 | B9
13 | 4.17 | 0.000335 | 80400 | B10
14 | 6.52 | 0.00055 | 84500 | B11
15 | 6.01 | 0.000688 | 115000 | B12
16 | 2.89 | 0.000409 | 141000 | B13
17 | 3.49 | 0.000328 | 93900 | B14
18 | 5.57 | 0.000621 | 111000 | B15

Each binder was assayed against T1, active human C1s purified from human … (assay: SPR (Biacore 4000), 37 C pH 7.4, antibody captured via goat anti-human antibody, C1s in solution, n=4).
Description: Binding of MAB39 and MAB9 to Human Active C1s at 37° C./pH 7.4 Measured by Surface Plasmon Resonance. Human active C1s purified from serum was procured from Complement Technologies, Tyler, TX (catalog number A104). Studies to evaluate MAB39 and MAB9 binding to human active C1s at 37° C. were performed on a Biacore 4000 and Biacore T100 (Cytiva, Marlborough, MA), respectively. Goat anti-human antibody (ThermoFisher, Waltham, MA, USA, catalog number H10500) was amine-coupled to a C1 sensor chip (Cytiva, Marlborough, MA, USA, catalog number BR100535). MAB39 was diluted to 6.67 nM and MAB9 was diluted to 10 nM in 50 mM HEPES pH 7.4, 150 mM NaCl, 1.3 mM Ca, 0.02% Tween-20, 1 mg/mL BSA (HBS). MAB39 was captured for 60 seconds to produce surface densities of 200 RU and MAB9 was captured for 30 seconds to produce surface densities of 10 to 20 RU. Human active C1s was tested for binding using a 3-fold titration series in HBS with a maximum concentration of 12.3 nM for MAB39 and 16 nM for MAB9. Data were processed by subtracting responses from a reference surface as well as a buffer injection. The processed data were fitted with a 1:1 interaction model including baseline offset and bulk refractive index shifts in the association phase. Surfaces were regenerated with a 12 second injection of 1/100 dilution of H3PO4 for MAB39 and 12 second injection of 1/50 dilution of H3PO4 for MAB9. Replicate experiments were performed (n=2 for MAB9 and n=4 for MAB39).
Comparison of Binding Affinities of MAB39 and MAB9 to Human Active C1s by Surface Plasmon Resonance. The human active C1s association constant (ka), disassociation constant (kd) and affinity (KD) for MAB39 and MAB9 were determined in separate experiments (Table 17). […] Statistical analysis was performed using paired t-test, with p value of 0.6168.

Row | Kd [nM] | koff [s⁻¹] | kon [M⁻¹ s⁻¹] | Binder
19 | 0.0105 | 0.000125 | 1.19e+07 | B16
